Kd and Ka data for 2 molecules are collected here from PMC6056500, “Novel interactomics approach identifies ABCA1 as direct target of evodiamine, which increases macrophage cholesterol efflux” (Scientific Reports, 2018).

Assay [1] addresses T1, ATP-binding cassette transporter A1 (ABCA1) (Homo sapiens, UniProt O95477).
T1 construct: recombinant ABCA1 peptide (Abcam #ab125995), C-terminal domain 2085–2245aa
T1 sequence (O95477 2085-2245): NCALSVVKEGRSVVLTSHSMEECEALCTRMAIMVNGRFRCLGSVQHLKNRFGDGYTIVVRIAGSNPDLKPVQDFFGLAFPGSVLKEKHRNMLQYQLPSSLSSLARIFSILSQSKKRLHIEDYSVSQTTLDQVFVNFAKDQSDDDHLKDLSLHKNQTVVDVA
As to the kind of experiment: SPR (Biacore […], immobilized ABCA1 C-terminal peptide on CM5 chip); also identified by NPOT in THP-1 extract.

For assay [2], the target named is T2, recombinant human retinal dehydrogenase-1 (ALDH1A1) (human, UniProt P00352 1-501).
T2 construct: retinal dehydrogenase 1 (aldehyde dehydrogenase 1 family, member A1), human, recombinant; also called ALDHA1; aldehyde dehydrogenase 1 family, member A1
T2 sequence (looked up): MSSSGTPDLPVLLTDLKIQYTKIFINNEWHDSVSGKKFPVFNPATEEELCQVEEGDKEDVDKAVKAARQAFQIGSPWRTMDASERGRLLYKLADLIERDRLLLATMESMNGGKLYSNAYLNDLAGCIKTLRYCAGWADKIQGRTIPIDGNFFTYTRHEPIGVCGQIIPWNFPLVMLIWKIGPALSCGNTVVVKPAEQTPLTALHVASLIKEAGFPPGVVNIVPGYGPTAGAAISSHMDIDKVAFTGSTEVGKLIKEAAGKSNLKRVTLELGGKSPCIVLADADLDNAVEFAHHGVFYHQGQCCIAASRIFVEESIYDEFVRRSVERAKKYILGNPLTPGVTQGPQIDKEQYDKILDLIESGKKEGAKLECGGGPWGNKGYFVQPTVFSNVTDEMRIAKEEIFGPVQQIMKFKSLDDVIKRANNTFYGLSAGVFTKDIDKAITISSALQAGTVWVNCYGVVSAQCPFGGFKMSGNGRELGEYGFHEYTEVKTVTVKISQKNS
As to the kind of experiment: SPR; Biacore 3000; ABCA1 peptide immobilised on a CM5 chip by amine coupling; proteins dialysed against HBS-E (10 mM Hepes, 150 mM NaCl, 3 mM EDTA); ALDH1A1 injected at 6e-8 to 1e-6 M; 1:1 fit (Langmuir or drifting baseline). Conditions: both partners purified.

`CN1c2ccccc2C(=O)N2CCc3c([nH]c4ccccc34)C21` (stereo in doubt) [evodiamine]: the affinity in assay [1], expressed as Kd, was 810 nM.

B1: recombinant ABCA1 peptide (Abcam #ab125995, covering C-terminal domain 2085-2245aa) (domain or fragment, UniProt O95477 2085-2245, looked up)
chain: T1 sequence (O95477 2085-2245)
notes: check the Abcam data sheet; source: bought: Abcam #ab125995, recombinant
Consider B1, for which, in assay [2], the Ka was found to be 1.25e+06 M⁻¹ and the Kd was found to be 803 nM.
